Measured values reported in US20230287145A1 (Hoffmann-La Roche, published 2023).

B1: TYRP1 TCB containing optimized anti-CD3 antibody clone P035.093 (bispecific antibody, human IgG1, kappa, L234A L235A)
heavy 1: not shown
heavy 2: QVQLVQSGAEVKKPGASVKVSCKASGFNIKDYFLHWVRQAPGQGLEWMGWINPDNGNTVYAQKFQGRVTMTADTSTSTVYMELSSLRSEDTAVYYCTRRDYTYEKAALDYWGQGTLVTVSSASTKGPSVFPLAPSSKSTSGGTAALGCLVEDYFPEPVTVSWNSGALTSGVHTFPAVLQSSGLYSLSSVVTVPSSSLGTQTYICNVNHKPSNTKVDEKVEPKSCDKTHTCPPCPAPEAAGGPSVFLFPPKPKDTLMISRTPEVTCVVVDVSHEDPEVKFNWYVDGVEVHNAKTKPREEQYNSTYRVVSVLTVLHQDWLNGKEYKCKVSNKALGAPIEKTISKAKGQPREPQVCTLPPSRDELTKNQVSLSCAVKGFYPSDIAVEWESNGQPENNYKTTPPVLDSDGSFFLVSKLTVDKSRWQQGNVFSCSVMHEALHNHYTQKSLSLSP
light 1: DIQMTQSPSSLSASVGDRVTITCRASGNIYNYLAWYQQKPGKVPKLLIYDAKTLADGVPSRFSGSGSGTDFTLTISSLQPEDVATYYCQHFWSLPFTFGQGTKLEIKRTVAAPSVFIFPPSDRKLKSGTASVVCLLNNFYPREAKVQWKVDNALQSGNSQESVTEQDSKDSTYSLSSTLTLSKADYEKHKVYACEVTHQGLSSPVTKSFNRGEC
light 2: EVQLLESGGGLVQPGGSLRLSCAASGFTFSSYAMNWVRQAPGKGLEWVSRIRSKYNNYATYYADSVKGRFTISRDDSKNTLYLQMNSLRAEDTAVYYCVRASNFPASYVSYFAYWGQGTLVTVSSASVAAPSVFIFPPSDEQLKSGTASVVCLLNNFYPREAKVQWKVDNALQSGNSQESVTEQDSKDSTYSLSSTLTLSKADYEKHKVYACEVTHQGLSSPVTKSFNRGEC
notes: 2+1 IgG CrossFab, inverted, with charge modifications; knob-into-hole, P329G L234A L235A; also called CD3opt (P035.093); CD3 P035.093

Assays:
[1] = target: T1, Human CD3ε stalk-Fc(knob)-Avi/CD3δ stalk-Fc(hole) (human); assay: SPR, biotinylated human CD3ε/δ on SA chip, TCB at 2 µg/ml; response normalised to anti-huIgG capture and referenced to the unstressed sample; after 2 weeks at pH 6.0/40 °C
T1 construct: Heterodimeric Fc fusion; also called human CD3ε/δ; Human CD3 epsilon stalk-Fc(knob)-Avi
Experimental: (§1) In order to assess the effect of the deamidation site removal and its effect on the stability of the antibodies, the optimized anti-CD3 antibodies (in TCB format) were incubated for 14 days at 37° C., pH 7.4 and at 40° C., pH 6 and further analyzed by SPR for their binding capability to human CD3ε/δ. Samples stored at −80° C. pH 6 were used as reference. The reference samples and the samples stressed at 40° C. were in 20 mM His, 140 mM NaCl, pH 6.0, and the samples stressed at 37° C. in PBS, pH 7.4, all at a concentration of 1.0 mg/ml. After the stress period (14 days) samples in PBS were dialyzed back to 20 mM His, 140 mM NaCl, pH 6.0 for further analysis.
(§2) All SPR experiments were performed on a Biacore T200 instrument (GE Healthcare) at 25° C. with HBS-P+ (10 mM HEPES, 150 mM NaCl pH 7.4, 0.05% Surfactant P20) as running and dilution buffer. Biotinylated human CD3ε/δ (see Example 3, SEQ ID NOs 41 and 42) as well as biotinylated anti-huIgG (Capture Select, Thermo Scientific, #7103262100) were immobilized on a Series S Sensor Chip SA (GE Healthcare, #29104992), resulting in surface densities of at least 1000 resonance units (RU). Anti-CD3 antibodies with a concentration of 2 μg/ml were injected for 30 s at a flow rate of 5 μl/min, and dissociation was monitored for 120 s. The surface was regenerated by injecting 10 mM glycine pH 1.5 for 60 s. Bulk refractive index differences were corrected by subtracting blank injections and by subtracting the response obtained from a blank control flow cell. For evaluation, the binding response 5 seconds after injection end was taken. To normalize the binding signal, the CD3 binding was divided by the anti-huIgG response (the signal (RU) obtained upon capture of the CD3 antibody on the immobilized anti-huIgG antibody). The relative binding activity was calculated by referencing each temperature stressed sample to the corresponding, non-stressed sample.

[2] = target: T1, Human CD3ε stalk-Fc(knob)-Avi/CD3δ …; assay: SPR, biotinylated human CD3ε/δ on SA chip, TCB at 2 µg/ml; response normalised to anti-huIgG capture and referenced to the unstressed sample; after 2 weeks at pH 7.4/37 °C
Experimental: as §1, §2

[3] = target: B1; assay: cell-based or functional assay
[4] = target: TYRP1 TCB with CD3 binder CH2527; assay: cell-based or functional assay
[5] = target: T2, TCB with CD3 binding Fab P035.093 (analyte of Table 9); assay: SPR, Biacore T200; anti-idiotypic IgG amine-coupled on CM5 chip, TCB as analyte; 1:1 Langmuir fit; single dilution series
T2 construct: not shown: Target-cell arm (TYRP1 or FOLR1 16D5), constant regions and Fc
Experimental: (§3) SPR experiments were performed on a Biacore T200 with HBS-EP+ as running buffer (0.01 M HEPES pH 7.4, 0.15 M NaCl, 0.005% Surfactant P20 (BR-1006-69, GE Healthcare)). Three anti-idiotypic antibodies were directly immobilized by amine coupling on a CMS chip (GE Healthcare). A three-fold dilution series of the different T cell bispecifics (TCBs) was passed 20 over the ligand at 30 μl/min for 180 sec to record the association phase. The dissociation phase was monitored for 600 s and triggered by switching from the sample solution to HBS-EP+. The chip surface was regenerated after every cycle using one injection of 10 mM glycine pH 2.1 for 60 sec, followed by two injections of 30 sec. Bulk refractive index differences were corrected for by subtracting the response obtained on the reference flow cell 1. The affinity constants were derived from the kinetic rate constants by fitting to a 1:1 Langmuir binding using the Biaeval 5 software (GE Healthcare). The measure was performed with a single dilution series.
(§4) SPR analysis was evaluated with masks as IgGs (immobilized on CM5 chip) and TCBs with different CD3 binding Fabs as analytes.

[6] = target: T3, TCB with CD3 binding Fab CH2527 (analyte of Table 9); assay: as above
T3 construct: also called CD3 CH2527; not shown: Target-cell arm (TYRP1 or FOLR1 16D5), constant regions and Fc
Experimental: as §3, §4

[7] = target: T4, FOLR1 CD3 TCB P035.093; assay: SPR, Biacore T200, 37 °C; FOLR1 CD3 TCB P035.093 captured on FOLR1-Fc (C1 chip), anti-idiotypic antibody as analyte; n=5; Stdev 140 s
T4 construct: Classical 2+1 TCB, knob-into-hole, PGLALA; the common light chain pairs with each of the Fabs; also called FOLR1 TCB CD3: P035.093
Experimental: (§5) Briefly, FOLR1-Fc was immobilized on a series s sensor chip C1 using standard amine coupling chemistry according to the manufacturer's instructions. […] The first flow cell was kept as mock surface. […] Dissociation was monitored for 300 s, the flow rate was set to 30 μl/min. The surface was regenerated by injecting 10 mM Glycine pH 2.0 for 60 s, followed by injecting 5 mM NaOH for 60 s at a flow rate of 5 μl/min. Bulk refractive index differences were corrected by subtracting the response obtained from flow cell one (mock surface) as well as by substracting buffer injections (double referencing). The derived curves were fitted to a 1:1 Langmuir binding model using the BIAevaluation software (GE Healthcare). […] All experiments were performed at 37° C. using HBS-N (10 mM HEPES, 150 mM NaCl pH 7.4, 0.05% Surfactant P-20).

[8] = target: T4, FOLR1 CD3 TCB P035.093; assay: SPR, Biacore T200, 37 °C; FOLR1 CD3 TCB P035.093 captured on FOLR1-Fc (C1 chip), anti-idiotypic antibody 1.2-100 nM as analyte; 1:1 Langmuir fit; n=5; Stdev 0.4 nM
Experimental: as §5

[9] = target: T1, Human CD3ε stalk-Fc(knob)-Avi/CD3δ …; assay: SPR, Biacore T200, 25 °C; monovalent IgG captured by anti-PG antibody on C1 chip, CD3ε/δ-Fc as analyte; triplicates
Experimental: (§6) Kinetic constants were derived using the Biacore T200 Evaluation Software (GE Healthcare Life Sciences), to fit rate equations for 1:1 Langmuir binding by numerical integration. The half-life (t_{1/2}) of the interaction was calculated using the formula t_{1/2}=ln 2/koff.
(§7) To analyze the interaction to CD3, IgG molecules were captured for 240 s at 50 nM with a flow rate of 5 μl/min. Human and cynomolgus CD3ε stalk-Fc(knob)-Avi/CD3δ-stalk-Fc(hole) were passed at a concentration of 0.061-250 nM with a flow rate of 30 μl/min through the flow cells for 300 s. The dissociation was monitored for 800 s.

[10] = target: T5, Cynomolgus CD3ε stalk-Fc(knob)-Avi/CD3δ stalk-Fc(hole) (cynomolgus); assay: as above
T5 construct: Heterodimeric Fc fusion; also called cynomolgus CD3ε/δ
Experimental: as §6, §7

[11] = target: T1, Human CD3ε stalk-Fc(knob)-Avi/CD3δ …; assay: SPR, Biacore T200, 25 °C; monovalent IgG captured by anti-PG antibody on C1 chip, CD3ε/δ-Fc as analyte; 1:1 Langmuir fit; triplicates
Experimental: as §6, §7

[12] = target: T5, Cynomolgus CD3ε stalk-Fc(knob)-Avi/CD3δ …; assay: as above
Experimental: as §6, §7

[13] = target: T1, Human CD3ε stalk-Fc(knob)-Avi/CD3δ …; assay: SPR, biotinylated human CD3ε/δ on SA chip, monovalent IgG; response normalised to anti-huIgG capture and referenced to the unstressed sample; after 2 weeks at pH 6.0/40 °C
Experimental: as §2

[14] = target: T1, Human CD3ε stalk-Fc(knob)-Avi/CD3δ …; assay: SPR, monovalent IgG format
[15] = target: T1, Human CD3ε stalk-Fc(knob)-Avi/CD3δ …; assay: SPR, biotinylated human CD3ε/δ on SA chip, monovalent IgG; response normalised to anti-huIgG capture and referenced to the unstressed sample; after 2 weeks at pH 7.4/37 °C
Experimental: as §2

T5 sequence (chain, as listed by the source mutant limits assumed, chain 1 of 2): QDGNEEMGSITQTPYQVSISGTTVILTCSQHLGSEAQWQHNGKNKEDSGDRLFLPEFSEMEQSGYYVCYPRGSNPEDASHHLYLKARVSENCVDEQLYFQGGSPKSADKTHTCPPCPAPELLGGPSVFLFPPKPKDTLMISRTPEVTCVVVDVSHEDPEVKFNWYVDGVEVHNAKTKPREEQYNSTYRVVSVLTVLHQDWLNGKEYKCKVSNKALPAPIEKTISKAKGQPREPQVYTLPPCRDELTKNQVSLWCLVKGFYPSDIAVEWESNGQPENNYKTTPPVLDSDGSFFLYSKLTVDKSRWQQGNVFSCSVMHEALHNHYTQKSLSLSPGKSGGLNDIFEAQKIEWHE
T5 sequence (chain, as listed by the source mutant limits assumed, chain 2 of 2): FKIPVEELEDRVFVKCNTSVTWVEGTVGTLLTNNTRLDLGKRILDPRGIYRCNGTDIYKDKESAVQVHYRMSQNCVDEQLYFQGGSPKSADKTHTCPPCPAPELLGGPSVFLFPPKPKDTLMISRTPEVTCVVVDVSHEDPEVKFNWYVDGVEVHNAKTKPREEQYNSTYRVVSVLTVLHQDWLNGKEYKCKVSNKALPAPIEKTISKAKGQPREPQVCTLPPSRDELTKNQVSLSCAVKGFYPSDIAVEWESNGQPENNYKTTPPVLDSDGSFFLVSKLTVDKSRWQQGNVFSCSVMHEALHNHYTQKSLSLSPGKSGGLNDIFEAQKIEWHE

Binder | t1/2 [9] [min] | t1/2 [10] [min] | Kd [11] [nM] | Kd [12] [nM] | binding activity [%] [13] [%] | koff [11] [s⁻¹] | kon [11] [M⁻¹ s⁻¹] | binding activity [%] [15] [%] | further results
B1 |  |  |  |  |  |  |  |  | binding activity [%] [1]: 97%; binding activity [%] [2]: 95%
Anti-idiotypic IgG 4.24.72 (parental chimeric antibody) (antibody, V domains shown, Tested as chimeric IgG; also called ID_4.24.72) VH: QIQLVQSGPELKKPGETVKISCKASGYTVTDYSMNWVKQAPGKCLKWMGWINTETGEPRYTDDFKGRFAFSLETSASTAYLQINNLKNEDSATYFCAREGDYDVFDYWGHGTTLKVSS VL: DIVLTQSPASLAVSLGQRATISCRASKSVSTSSYSYMHWYQQKPGQPPKLLIKYVSYLESGVPARFSGSGSGTDFTLNIHPVEEEDAATYYCQHSREFPYTFGCGTKLEIK |  |  |  |  |  |  |  |  | IC50 (read off the curve): reduction of Jurkat NFAT luminescence by anti-ID 4.24.72 IgG, TYRP1 TCB (CD3 variant P035.093) at EC90 [3]: ~1 nM; IC50 (read off the curve): reduction of Jurkat NFAT luminescence by anti-ID 4.24.72 IgG, TYRP1 TCB (CH2527) at EC90 [4]: ~1 nM; Kd [5]: 2.1 nM; koff [5]: 0.000309 s⁻¹; kon [5]: 148000 M⁻¹ s⁻¹; Kd [6]: 4.7 nM; koff [6]: 0.000675 s⁻¹; kon [6]: 141000 M⁻¹ s⁻¹; t1/2 diss [7]: 446 s; Kd [8]: 1.5 nM
Anti-CD3 antibody clone P035.093 in monovalent human IgG1 format (antibody, V domains shown, Monovalent human IgG1 with crossed VH and VL domains; knob-into-hole; P329G L234A L235A; also called P035.093 (monovalent IgG)) VH: EVQLLESGGGLVQPGGSLRLSCAASGFTFSSYAMNWVRQAPGKGLEWVSRIRSKYNNYATYYADSVKGRFTISRDDSKNTLYLQMNSLRAEDTAVYYCVRASNFPASYVSYFAYWGQGTLVTVSS VL: QAVVTQEPSLTVSPGGTVTLTCGSSTGAVTTSNYANWVQEKPGQAFRGLIGGTNKRAPGTPARFSGSLLGGKAALTLSGAQPEDEAEYYCALWYSNLWVFGGGTKLTVL | 8.25 | 11.8 | 0.456 | 0.224 | 100 |  |  |  | 
Anti-CD3 antibody clone P033.078 in monovalent human IgG1 format (antibody, V domains shown, knob-into-hole; P329G L234A L235A; also called P033.078 (monovalent IgG)) VH: EVQLLESGGGLVQPGGSLRLSCAASGFTFESYAMNWVRQAPGKGLEWVSRIRSKYNEYATYYADSVKGRFTISRDDSKNTLYLQMNSLRAEDTAVYYCVRASNFPSSFVSYFGYWGQGTLVTVSS VL: QAVVTQEPSLTVSPGGTVTLTCGSSTGAVTTSNYANWVQEKPGQAFRGLIGGTNKRAPGTPARFSGSLLGGKAALTLSGAQPEDEAEYYCALWYSNLWVFGGGTKLTVL | 8.69 | 11.1 | 0.771 | 0.403 | 98 | 0.00133 | 1.73e+06 | 95 | fold of binding half-life over CD3orig [14]: > 2 fold; koff [12]: 0.00104 s⁻¹; kon [12]: 2.6e+06 M⁻¹ s⁻¹
CD3orig in monovalent human IgG1 format (antibody, V domains shown, Monovalent human IgG1 with crossed VH and VL domains; knob-into-hole; P329G L234A L235A; also called CD3orig (monovalent IgG)) VH: not shown VL: QAVVTQEPSLTVSPGGTVTLTCGSSTGAVTTSNYANWVQEKPGQAFRGLIGGTNKRAPGTPARFSGSLLGGKAALTLSGAQPEDEAEYYCALWYSNLWVFGGGTKLTVL | 3.98 |  | 4.94 |  | 97 | 0.0029 | 587000 | 60 | 
